This assay has as its target T1, intestinal guanylate cyclase (Homo sapiens, UniProt P25092).
T1 construct: host or cells: T84 human colon carcinoma cells
As to the kind of experiment: T84 cell bioassay: intracellular cyclic GMP levels. It is filed as cell-based. The conditions noted are these: compared with STa; T84 cells, FIG. 3a. The protocol: a) Activity in the T84 cell bioassay. As determined by analysis of the effects of the peptides on intracellular cyclic GMP levels.
Cell Culture: A cultured human colon carcinoma cell line (T84) was obtained from the American Type Culture Collection (Rockville, Md.) at passage 52. Cells were grown to confluency in 24-well culture plates with a 1:1 mixture of Ham's F12 medium and Dulbecco's modified Eagle's medium (DMEM), supplemented with 10% fetal calf serum, 100 IU/ml penicillin, and 100 μg/ml streptomycin. Cells were used at passages 54-60.
Cyclic GMP determination: Monolayers of T84 cells in 24-well plates were washed twice with 1 ml/well DMEM, then incubated at 37 C. for 10 min with 0.5 ml DMEM containing 1 mM isobutylmethylxanthine (IBMX), a cyclic nucleotide phosphodiesterase inhibitor. Agents and fractions were then added for the indicated time as described in the results section. The media was then aspirated and the reaction terminated by the addition of ice cold 0.5 ml of 0.1N HCl. Aliquots were then evaporated to dryness under nitrogen and then resuspended in 5 mM sodium acetate buffer, pH 6.4. The samples were subsequently measured for cyclic GMP by RIA as described by Steiner et al. (16).

T1 sequence (P25092 24-1073): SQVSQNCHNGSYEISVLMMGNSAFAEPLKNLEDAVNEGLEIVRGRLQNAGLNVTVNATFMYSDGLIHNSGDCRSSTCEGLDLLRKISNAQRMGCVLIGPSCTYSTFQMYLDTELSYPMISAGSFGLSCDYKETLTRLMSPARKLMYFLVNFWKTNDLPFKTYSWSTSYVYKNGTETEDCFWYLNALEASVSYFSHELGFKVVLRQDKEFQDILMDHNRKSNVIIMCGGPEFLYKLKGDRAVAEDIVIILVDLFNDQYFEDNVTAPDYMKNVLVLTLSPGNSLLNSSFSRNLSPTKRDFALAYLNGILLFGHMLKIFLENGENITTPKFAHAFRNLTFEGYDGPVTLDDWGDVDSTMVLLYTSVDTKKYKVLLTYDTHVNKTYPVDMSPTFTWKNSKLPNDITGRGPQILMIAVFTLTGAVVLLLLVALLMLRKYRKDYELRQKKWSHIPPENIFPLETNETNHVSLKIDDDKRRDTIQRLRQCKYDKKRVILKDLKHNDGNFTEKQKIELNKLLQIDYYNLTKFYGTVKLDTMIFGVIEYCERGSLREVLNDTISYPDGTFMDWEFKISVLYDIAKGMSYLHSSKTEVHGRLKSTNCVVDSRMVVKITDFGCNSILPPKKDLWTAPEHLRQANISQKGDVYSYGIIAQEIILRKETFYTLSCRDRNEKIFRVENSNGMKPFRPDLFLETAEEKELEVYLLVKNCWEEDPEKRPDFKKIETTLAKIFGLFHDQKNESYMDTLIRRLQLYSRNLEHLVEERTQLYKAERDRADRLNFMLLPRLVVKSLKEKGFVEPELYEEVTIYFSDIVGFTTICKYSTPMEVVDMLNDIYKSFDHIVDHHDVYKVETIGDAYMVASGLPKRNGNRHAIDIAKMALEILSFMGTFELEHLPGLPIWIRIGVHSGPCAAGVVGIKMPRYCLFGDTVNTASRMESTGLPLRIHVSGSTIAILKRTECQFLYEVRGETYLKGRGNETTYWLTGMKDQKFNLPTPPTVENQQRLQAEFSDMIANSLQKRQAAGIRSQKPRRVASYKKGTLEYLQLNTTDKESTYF

B1: rat guanylin: 15 amino acid rat guanylin peptide; shares 14 of 15 amino acids with human guanylin (peptide)
peptide: MNAWLLSVLCLLGALAVLVEGVTVQDGDLSFPLESVKQLKHLREVQEPTLMSHKKFALRLPKPVAPELCSQSAFPEALRPLCEKPNAEEILQRLEAIAQDPNTCEICAYAACTGC
Regarding B1, the “relative potency to activate intestinal guanylate cyclase (T84 cell cyclic GMP)” value is listed as “about one order of magnitude less potent than STa”.

The values above are taken from patent US5969097A, “Human guanylin” (G. D. Searle & Co., priority 1992, dated 1999).
